B1: HKU1B receptor binding domain (residues 323-607) (domain or fragment)
chain: NLPDCDIDNWLNNVSVPSPLNWERRIFSNCNFNLSTLLRLVHVDSFSCNNLDKSKIFGSCFNSITVDKFAIPNRRRDDLQLGSSGFLQSSNYKIDISSSSCQLYYSLPLVNVTINNFNPSSWNRRYGFGSFNLSSYDVVYSDHCFSVNSDFCPCADPSVVNSCAKSKPPSAICPAGTKYRHCDLDTTLYVKNWCRCSCLPDPISTYSPNTCPQKKVVVGIGEHCPGLGINEEKCGTQLNHSSCFCSPDAFLGWSFDSCISNNRCNIFSNFIFNGINSGTTCSNDL
modifications: biotinylated with the BirA biotin-protein ligase kit for the BLI experiment with nanobodies only
B2: TMPRSS2 (transmembrane-serine protease 2), wild type, on transfected 293T cells (receptor)
chain: MALNSGSPPAIGPYYENHGYQPENPYPAQPTVVPTVYEVHPAQYYPSPVPQYAPRVLTQASNPVVCTQPKSPSGTVCTSKTKKALCITLTLGTFLVGAALAAGLLWKFMGSKCSNSGIECDSSGTCINPSNWCDGVSHCPGGEDENRCVRLYGPNFILQVYSSQRKSWHPVCQDDWNENYGRAACRDMGYKNNFYSSQGIVDDSGSTSFMKLNTSAGNVDIYKKLYHSDACSSKAVVSLRCIACGVNLNSSRQSRIVGGESALPGAWPWQVSLHVQNVHVCGGSIITPEWIVTAAHCVEKPLNNPWHWTAFAGILRQSFMFYGAGYQVEKVISHPNYDSKTKNNDIALMKLQKPLTFNDLVKPVCLPNPGMMLQPEQLCWISGWGATEEKGKTSEVLNAAKVLLIETQRCNSRYVYDNLITPAMICAGFLQGNVDSCQGDSGGPLVTSKNNIWWLIGDTSWGSGCAKAYRPGVYGNVMVFTDWIYRQMRADG
B3: HKU1B receptor binding domain with the R517A mutation (domain or fragment)
chain: B1 chain with R195A
B4: HKU1A receptor binding domain (residues 323-609) (domain or fragment)
chain: DLPDCDIDKWLNNFNVPSPLNWERKIFSNCNFNLSTLLRLVHTDSFSCNNFDESKIYGSCFKSIVLDKFAIPNSRRSDLQLGSSGFLQSSNYKIDTTSSSCQLYYSLPAINVTINNYNPSSWNRRYGFNNFNLSSHSVVYSRYCFSVNNTFCPCAKPSFASSCKSHKPPSASCPIGTNYRSCESTTVLDHTDWCRCSCLPDPITAYDPRSCSQKKSLVGVGEHCAGFGVDEEKCGVLDGSYNVSCLCSTDAFLGWSYDTCVSNNRCNIFSNFILNGINSGTTCSNDL
B5: anti-TMPRSS2 nanobody VHH-A01 (VHH)
VHH: QVQLVESGGGLVQPGGSLRLSCVVSGFSLDYYAIGWFRQAPGKEREGVSCIGSSGDKTNYADSVKGRFTISRDNAKNTVYLQMNSLKPEDTAVYYCAAESALYSDCTEEQNPMLYDYWGQGTQVTVSS
B6: anti-TMPRSS2 nanobody VHH-D01 (VHH)
VHH: EVQLVESGGGLVQPGGPLRLSCASSGSTLEHYDIGWFRQVPGGLREGVSSITASGGRTNYADSVKGRFTISRDNGKNAVYLQMNSLKPEDTAVYYCAGKIGGRRNWVAPLDGFENAYWGQGTQVTVSS
B7: anti-TMPRSS2 nanobody VHH-F05 (VHH)
VHH: EVQLVESGGGLVQPGGSLRLSCAASGFTLDYYAIGWFRQAPGKEREGVSCISSSGDSIKYVDSVKGRFTISRDNAKNTVYLQMNSLKPEDTAVYQCAADALGSGCLTGNYDYWGQGTRVTVSS
B8: anti-TMPRSS2 nanobody VHH-C11 (VHH)
VHH: QVQLVESGGGLVQPGGSLRLSCAASGFTLDYYDIYWFRQAPGKEREGVSSITTSGGRTNYADSVKGRFTISRDNAKNTVYLQMNSLKPEDTAVYYCAAKVGGRRNWIAPLNGYENALWGKGTLVTVSS
B9: anti-TMPRSS2 nanobody VHH-A07 (VHH)
VHH: QVQLVESGGGLVQPGGSLRLSCTSSGSPLEHYDIIWFRQAPGREREGVSSITTSGGHTNYADSVKDRFTISRDNAKNVVYLQMNSLKPEDTAVYYCAGRVGGRRNWIVPLDGYDNAYWGQGTQVTVSS

Changes are numbered by the printed parent chain. Names may count otherwise.

One may read the Kd as a measure of binding affinity in units of concentration. By koff is commonly meant the rate constant with which the complex falls apart. Higher therefore signals fast dissociation.

For one experiment, the target named is T1, S441A TMPRSS2 ectodomain, soluble (human, UniProt O15393 106-492, S441A). Briefly: BLI.
For B1, binding was put at a Kd of 0.131 µM. This counts as sub-micromolar.

The target in another experiment is dimeric anti-TMPRSS2 VHH-A01-Fc (alpaca (Lama pacos)). The experiment can be described thus: flow cytometry on cells.
For the molecule B2, the binding result is “binds”.

Another experiment addresses T1, S441A TMPRSS2 ectodomain, soluble. The experiment can be described thus: BLI. The source holds these as a separate data set. (In general: BLI is a label-free optical method that tracks binding on a fibre tip over time.)
On to B1, for which the equilibrium dissociation constant (Kd) is 0.137 ± 0.0208 µM.
The same measure, in the same setting: the figure for B3 is 0.376 ± 0.0964 µM; for B4 it is 0.334 ± 0.0662 µM.

The target of the next experiment is S441A TMPRSS2 ectodomain, soluble (human, UniProt O15393, S441A). The experiment can be described thus: BLI.
S441A TMPRSS2 ectodomain, soluble (human, UniProt O15393, S441A), sequence (O15393 106-492 S441A): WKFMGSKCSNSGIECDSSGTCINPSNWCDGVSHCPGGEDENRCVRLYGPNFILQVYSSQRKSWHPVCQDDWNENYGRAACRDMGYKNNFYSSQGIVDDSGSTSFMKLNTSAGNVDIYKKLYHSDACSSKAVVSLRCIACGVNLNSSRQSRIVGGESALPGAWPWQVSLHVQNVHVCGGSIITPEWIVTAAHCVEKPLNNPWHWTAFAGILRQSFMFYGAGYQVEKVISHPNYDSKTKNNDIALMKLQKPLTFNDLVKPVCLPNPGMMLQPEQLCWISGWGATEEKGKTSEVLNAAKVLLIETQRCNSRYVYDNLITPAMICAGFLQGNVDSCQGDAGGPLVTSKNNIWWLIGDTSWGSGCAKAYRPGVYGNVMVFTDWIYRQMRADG
Molecule B5 registered an equilibrium dissociation constant (Kd) of 0.00078 µM and an off-rate (koff) of 5.1e-05 s⁻¹.
B6: the Kd turned out to be 0.006 µM and the off-rate constant (koff) amounted to 0.00048 s⁻¹.
On the same counts, the results for B7 are 0.0026 µM and 0.00019 s⁻¹.
The matching figures for B8: 0.0325 µM and 0.00023 s⁻¹.
The matching figures for B9: 0.0133 µM and 0.0011 s⁻¹.

Source of the values: publication PMC11331971 (Nature, 2023).
